Each block holds one binder with its values, some of them ahead of it.
B5: CENP-C_(1264-1411) (tag cleaved) (domain or fragment, Drosophila melanogaster, UniProt Q9VHP9 1264-1411, looked up)
chain: GPVVFSTPLRDEQEEASTKLMQWLRGVGDAPPSASMSDENASVSSANELIFCQVDGIDYAFYNTKEKAMLGYMRFKPYQKRSMKQAKVHPLKLLVQFGEFNVETLAVGEEKEVHSVLRVGDMIEIDRGTRYSIQNAIDKVSVLMCIRS

Columns and labels:
[1] = target: T1, CENP-A_(101-225)–H4 heterodimer (Drosophila melanogaster, UniProt Q9V6Q2 101-225; P84040 2-103); test: pull-down
[2] = target: B5; test: AUC
His-CAL1_(1-160) = target: T2, His-CAL1_(1-160) (Drosophila melanogaster, UniProt Q9VEN2 1-160); test: crystal structure
T2 sequence (looked up): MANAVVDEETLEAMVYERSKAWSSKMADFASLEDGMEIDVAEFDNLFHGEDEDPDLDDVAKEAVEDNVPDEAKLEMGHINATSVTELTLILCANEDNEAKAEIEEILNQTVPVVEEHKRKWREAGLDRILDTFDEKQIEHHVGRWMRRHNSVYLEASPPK

Histone H4 = Histone H4 (Drosophila melanogaster, UniProt P84040 2-103); test: crystal structure
[3] = target: T1, CENP-A_(101-225)–H4 heterodimer; test: SEC-MALS
CENP-A-GFP-LacI = target: T3, CENP-A-GFP-LacI (Drosophila melanogaster, UniProt Q9V6Q2 1-225); test: LacO/LacI tethering assay in cells
T3 sequence (looked up): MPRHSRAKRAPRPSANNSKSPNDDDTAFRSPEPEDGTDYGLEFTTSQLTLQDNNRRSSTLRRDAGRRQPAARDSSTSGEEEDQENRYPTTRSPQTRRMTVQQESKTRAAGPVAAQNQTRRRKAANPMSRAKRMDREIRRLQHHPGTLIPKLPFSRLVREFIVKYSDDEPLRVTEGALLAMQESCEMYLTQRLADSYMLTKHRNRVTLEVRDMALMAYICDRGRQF

SEC-MALS = target: the molecule itself; test: SEC-MALS

binding result [1]: binds
B1: His-CAL1_(1-160) F43R (domain or fragment)
chain: MANAVVDEETLEAMVYERSKAWSSKMADFASLEDGMEIDVAERDNLFHGEDEDPDLDDVAKEAVEDNVPDEAKLEMGHINATSVTELTLILCANEDNEAKAEIEEILNQTVPVVEEHKRKWREAGLDRILDTFDEKQIEHHVGRWMRRHNSVYLEASPPK

stoichiometry N [2]: 1 CAL1 per CENP-C dimer
B2: CAL1_(841-979) (untagged) (domain or fragment, Drosophila melanogaster, UniProt Q9VEN2 841-979, looked up)
chain: GGDPDCTVVTSTTGCEPPASERQEIPATIKITKRGILLHSPSAPEGASFTLTEQGLGKIIGERWARKYLKYHIGSRSFDSRHSVYYQPTPQLAAALSAPQDAQNIGNISGSSASDDDIFEQINRYGTVYSILENNSGDK

binding result (His-CAL1_(1-160)): binds
binding result (Histone H4): binds
B3: CENP-A_(101-225) (domain or fragment)
chain: QQESKTRAAGPVAAQNQTRRRKAANPMSRAKRMDREIRRLQHHPGTLIPKLPFSRLVREFIVKYSDDEPLRVTEGALLAMQESCEMYLTQRLADSYMLTKHRNRVTLEVRDMALMAYICDRGRQF

stoichiometry N [3]: 1 CAL1 per CENP-A/H4 heterodimer
Binder: MANAVVDEETLEAMVYERSKAWSSKMADFASLEDGMEIDVAEFDNLFHGE (domain or fragment) [His-CAL1_(1-50)]

fold reduction of the level co-localising with CENP-A, against CAL1 WT (CENP-A-GFP-LacI): 3 fold
B4: CAL1_(F43R)-V5 (natural protein, Drosophila melanogaster, UniProt Q9VEN2 1-979, looked up)
chain: MANAVVDEETLEAMVYERSKAWSSKMADFASLEDGMEIDVAERDNLFHGEDEDPDLDDVAKEAVEDNVPDEAKLEMGHINATSVTELTLILCANEDNEAKAEIEEILNQTVPVVEEHKRKWREAGLDRILDTFDEKQIEHHVGRWMRRHNSVYLEASPPKYLPPHHNSISDESDESMHSIDTARYIQQSRRRNAHMTNKNMTTIKMYRKHSHKRDELRAKYAYGDEQEHRHHMQAVLLRRRERERQLAYLASTPMQCVYSSGHHMRRKNLRKRRINSWMFDSASSSEEDTSFGGCDCHSCRRHYALSRSVYQSCPYGRGQREYHHRQMASRTMHTMRRQHTFDMEMDLRPRLPENECSCCNSDRLCSNVIHIANSSTEEWVVENRSNHLTQETQEKTRKQKHQPMDARKVSHQPVCSKGHEQKPLSSKATSVSKLVLSKEKYMQMFDSESSDEDNALAKKGLLCCSDKKKGMTFPTPNAAGKITHPTSSAKKAIRKEARPNGLAQIQEEGPTATNSPIESTYLPVAHMKSVSIDGSSGTSATFESPAKKAPKRGIRETSPLNGNELQQLISTIPIADEKASSLMEKVDNCIGRESFDDRNKDFMHMENSSTKTAVEKSTKQKRVSGKKSEIPKSIITNNEILEKNSTETLSEKQVAAKAKKQSVRKTGATGKPSTSRLKKSEKTKTTSSVTSTSKLEQVREEESDVSSEVLAKPKPQCSTTASILKQGGDGASNSEDDLQIALAMSKATYKEEQQKRKKTKREPSNKQPQSPAEKSMTVFNNQSVACNSTALANDTACYRVLPKRRGVKRAAAVSTTEEKTATNSSSSPTSSLEEMGSPTGGDPDCTVVTSTTGCEPPASERQEIPATIKITKRGILLHSPSAPEGASFTLTEQGLGKIIGERWARKYLKYHIGSRSFDSRHSVYYQPTPQLAAALSAPQDAQNIGNISGSSASDDDIFEQINRYGTVYSILENNSGDK

Binder: B5
stoichiometry N (SEC-MALS): 2

Reference: publication doi:10.1101/723213 (bioRxiv, 2019)
